One data set concerns the target T1, Pot1pC (Schizosaccharomyces pombe, UniProt O13988 198-339).
T1 sequence: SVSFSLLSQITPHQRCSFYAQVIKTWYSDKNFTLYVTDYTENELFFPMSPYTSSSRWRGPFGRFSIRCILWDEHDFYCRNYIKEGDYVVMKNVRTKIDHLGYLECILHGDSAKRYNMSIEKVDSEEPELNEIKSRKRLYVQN
As to the kind of experiment: NMR.

A further data set deals with T2, Pot1pC_Y224A (Schizosaccharomyces pombe, UniProt O13988 198-339, Y224A).
T2 sequence: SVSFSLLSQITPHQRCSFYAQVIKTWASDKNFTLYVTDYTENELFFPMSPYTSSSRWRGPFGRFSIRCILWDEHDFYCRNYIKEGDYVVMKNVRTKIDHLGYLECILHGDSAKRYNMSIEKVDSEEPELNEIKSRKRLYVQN
As to the kind of experiment: ITC.

Another data set addresses T3, Pot1-DBD_Y224A (Schizosaccharomyces pombe, UniProt O13988 1-339, Y224A).
T3 sequence: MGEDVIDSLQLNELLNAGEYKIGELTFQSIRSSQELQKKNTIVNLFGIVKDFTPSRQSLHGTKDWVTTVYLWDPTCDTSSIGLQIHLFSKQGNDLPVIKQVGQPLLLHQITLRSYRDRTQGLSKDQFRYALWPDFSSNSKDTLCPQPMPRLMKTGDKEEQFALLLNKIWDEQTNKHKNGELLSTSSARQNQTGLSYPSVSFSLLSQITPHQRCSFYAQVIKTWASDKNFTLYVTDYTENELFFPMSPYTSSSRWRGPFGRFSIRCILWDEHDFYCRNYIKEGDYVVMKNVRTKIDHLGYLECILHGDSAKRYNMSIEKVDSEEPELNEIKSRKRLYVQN
As to the kind of experiment: SEC-MALS.

Data set [1] addresses T4, Pot1-DBD (Schizosaccharomyces pombe, UniProt O13988 1-339).
T4 sequence: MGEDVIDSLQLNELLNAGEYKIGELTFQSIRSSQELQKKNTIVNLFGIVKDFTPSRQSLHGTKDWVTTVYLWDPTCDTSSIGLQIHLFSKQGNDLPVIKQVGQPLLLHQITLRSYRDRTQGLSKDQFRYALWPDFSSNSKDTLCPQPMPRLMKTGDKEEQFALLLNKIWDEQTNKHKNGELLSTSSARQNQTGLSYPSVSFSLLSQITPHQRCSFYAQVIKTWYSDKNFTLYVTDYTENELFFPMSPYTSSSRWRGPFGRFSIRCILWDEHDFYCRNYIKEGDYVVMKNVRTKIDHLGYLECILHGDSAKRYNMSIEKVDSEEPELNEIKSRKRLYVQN
As to the kind of experiment: NMR.

In data set [2] the target is T4, Pot1-DBD. As to the kind of experiment: EMSA.
Data set [3] addresses T4, Pot1-DBD. Description: SEC-MALS.
For data set [4], the target named is T4, Pot1-DBD. As to the kind of experiment: SEC-MALS. The source holds these as a separate data set.
Another data set addresses T5, Pot1pN (Schizosaccharomyces pombe, UniProt O13988 1-187).
T5 sequence: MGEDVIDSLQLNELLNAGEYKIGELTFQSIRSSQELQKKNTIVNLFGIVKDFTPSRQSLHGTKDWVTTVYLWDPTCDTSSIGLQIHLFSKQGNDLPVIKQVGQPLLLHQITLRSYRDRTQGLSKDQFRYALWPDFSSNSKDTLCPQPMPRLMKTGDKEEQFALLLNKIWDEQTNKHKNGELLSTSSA
Description: NMR.

On to GGTTACGGT (ssDNA) [9mer], for which the binding result with Pot1pC is “binds”. For the same molecule, in the data set with Pot1pC_Y224A, the binding signal is ~10 fold weaker than Pot1pC wild type.

In the case of GGTTACGGTTACGGT (ssDNA) [15mer], the binding result in the data set with Pot1-DBD_Y224A and in the data set with Pot1-DBD [1] was “binds” in each case.

On to GGTTACGGTTAC (ssDNA) [12mer], for which the binding result with Pot1-DBD [2] is listed as “binds”.

Consider GGTTACGGTTACCGT (ssDNA) [15mer_G13C], for which the binding result with Pot1-DBD [3] is reported as “binds”.

As to GGTTACGGATAC (ssDNA) [12mer_T9A], in the data set with Pot1-DBD [4], the binding result is “binds”.

For the molecule GGTTAC (ssDNA) [6mer], the binding result with Pot1pN was “binds”.

These data come from paper PMC4150783.
